Results as given in patent US20250177546A1, “ROR1-TARGETED BINDING MOLECULE AND USE THEREOF” (SANYOU BIOPHARMACEUTICALS CO., LTD., priority 2022, published 2025).

Assays:
[1] = biological target: huROR1-His (human ROR1 ECD AA30-406 with C-terminal His tag, made in house) (human) (UniProt Q01973); experiment: Gator (BLI) Advanced Kinetics; antibody 30 nM, huROR1-His 480-7.5 nM
[2] = biological target: huROR1-His (human ROR1 ECD AA30-406 with C-terminal His tag, made in house) (human) (UniProt Q01973); experiment: ELISA, huROR1-His coated plate, goat anti-human Fc-HRP, OD450
[3] = biological target: huROR1-His (human ROR1 ECD AA30-406 with C-terminal His tag, made in house) (human) (UniProt Q01973); experiment: as above; remark: listed apart in the source
[4] = biological target: huROR1-His (human ROR1 ECD AA30-406 with C-terminal His tag, made in house) (human) (UniProt Q01973); experiment: as above; remark: listed apart in the source
[5] = biological target: huROR1-His (human ROR1 ECD AA30-406 with C-terminal His tag, made in house) (human) (UniProt Q01973); experiment: as above; remark: listed apart in the source
[6] = biological target: huROR1-His (human ROR1 ECD AA30-406 with C-terminal His tag, made in house) (human) (UniProt Q01973); experiment: as above; remark: listed apart in the source
[7] = biological target: huROR1-His (human ROR1 ECD AA30-406 with C-terminal His tag, made in house) (human) (UniProt Q01973); experiment: ELISA, huROR1-His coated at 2 µg/mL, goat anti-human Fc-HRP, OD450
[8] = biological target: huROR1-His (human ROR1 ECD AA30-406 with C-terminal His tag, made in house) (human) (UniProt Q01973); experiment: as above; remark: listed apart in the source
[9] = biological target: human ROR1 on cells (full-length human ROR1 on huROR1-HEK293 cells; human ROR1 on A549 and HT-29 tumor cells) (human) (UniProt Q01973); experiment: flow cytometry (FACS) on A549 tumor cells, anti-human IgG-Fc secondary antibody, MFI
Chain of human ROR1 on cells (full-length human ROR1 on huROR1-HEK293 cells; human ROR1 on A549 and HT-29 tumor cells) (human) (Q01973 30-937): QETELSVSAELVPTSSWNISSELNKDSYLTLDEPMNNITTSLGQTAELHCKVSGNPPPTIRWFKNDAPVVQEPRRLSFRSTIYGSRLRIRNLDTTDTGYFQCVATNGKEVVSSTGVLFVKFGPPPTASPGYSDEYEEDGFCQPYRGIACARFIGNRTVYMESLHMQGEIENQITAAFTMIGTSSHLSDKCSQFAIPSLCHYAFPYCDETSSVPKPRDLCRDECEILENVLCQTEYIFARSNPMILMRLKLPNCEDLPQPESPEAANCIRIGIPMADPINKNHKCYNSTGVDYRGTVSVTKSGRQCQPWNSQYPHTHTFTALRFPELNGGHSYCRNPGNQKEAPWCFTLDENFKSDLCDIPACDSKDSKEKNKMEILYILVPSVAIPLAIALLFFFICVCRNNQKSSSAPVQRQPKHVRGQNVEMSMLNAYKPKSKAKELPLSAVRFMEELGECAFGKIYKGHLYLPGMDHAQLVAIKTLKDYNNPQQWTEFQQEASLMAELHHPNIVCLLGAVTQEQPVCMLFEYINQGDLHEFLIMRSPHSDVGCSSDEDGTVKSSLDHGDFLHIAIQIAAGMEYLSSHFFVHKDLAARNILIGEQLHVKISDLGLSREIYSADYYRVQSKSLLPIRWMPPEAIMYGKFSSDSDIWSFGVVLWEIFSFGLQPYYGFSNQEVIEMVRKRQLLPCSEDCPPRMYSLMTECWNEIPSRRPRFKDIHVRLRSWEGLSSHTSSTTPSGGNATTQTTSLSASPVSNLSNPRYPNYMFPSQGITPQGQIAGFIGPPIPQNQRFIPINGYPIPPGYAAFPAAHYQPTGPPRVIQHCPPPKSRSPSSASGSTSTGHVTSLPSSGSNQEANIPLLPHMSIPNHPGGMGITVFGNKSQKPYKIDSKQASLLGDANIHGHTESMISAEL

[10] = biological target: human ROR1 on cells (full-length human ROR1 on huROR1-HEK293 cells; human ROR1 on A549 and HT-29 tumor cells) (human) (UniProt Q01973); experiment: as above; remark: listed apart in the source
[11] = biological target: human ROR1 on cells (full-length human ROR1 on huROR1-HEK293 cells; human ROR1 on A549 and HT-29 tumor cells) (human) (UniProt Q01973); experiment: flow cytometry (FACS) on huROR1-HEK293 cells, anti-human IgG-Fc secondary antibody, MFI
[12] = biological target: human ROR1 on cells (full-length human ROR1 on huROR1-HEK293 cells; human ROR1 on A549 and HT-29 tumor cells) (human) (UniProt Q01973); experiment: as above; remark: listed apart in the source
[13] = biological target: huROR1-His (human ROR1 ECD AA30-406 with C-terminal His tag, made in house) (human) (UniProt Q01973); experiment: Biacore T200 SPR; huROR1-His amine-coupled (~75 RU), antibody 4 and 20 nM as analyte, 1:1 Langmuir fit
[14] = biological target: human ROR1 on cells (full-length human ROR1 on huROR1-HEK293 cells; human ROR1 on A549 and HT-29 tumor cells) (human) (UniProt Q01973); experiment: flow cytometry (FACS) on HT29 (HT-29) tumor cells, anti-human IgG-Fc secondary antibody, MFI

Chain of huROR1-His (human ROR1 ECD AA30-406 with C-terminal His tag, made in house) (human) (Q01973 30-406 limits assumed): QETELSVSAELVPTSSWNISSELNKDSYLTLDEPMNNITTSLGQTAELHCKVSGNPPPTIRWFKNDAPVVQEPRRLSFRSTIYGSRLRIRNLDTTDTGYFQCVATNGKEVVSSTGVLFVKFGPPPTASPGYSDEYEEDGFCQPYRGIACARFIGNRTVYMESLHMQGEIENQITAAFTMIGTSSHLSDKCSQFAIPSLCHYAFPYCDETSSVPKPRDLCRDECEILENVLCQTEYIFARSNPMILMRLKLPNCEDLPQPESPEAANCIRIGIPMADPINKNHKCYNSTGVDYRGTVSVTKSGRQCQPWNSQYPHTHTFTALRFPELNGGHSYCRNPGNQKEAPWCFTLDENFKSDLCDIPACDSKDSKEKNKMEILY

Kd [1]: 13.5 nM | koff [1]: 0.00712 s⁻¹ | kon [1]: 529000 M⁻¹ s⁻¹ | EC50 [2]: 3.24 ng/mL | EC50 [3]: 3 ng/mL | EC50 [4]: 2.56 ng/mL | EC50 [5]: 3.3 ng/mL | EC50 [6]: 3 ng/mL | EC50 [7]: 5.78 ng/mL | EC50 [8]: 5.12 ng/mL | EC50 (read off the curve) [9]: 3 ng/mL | EC50 (read off the curve) [10]: 10 ng/mL | EC50 (read off the curve) [11]: 60 ng/mL | EC50 (read off the curve) [12]: 50 ng/mL | Kd [13]: 1.98 nM | koff [13]: 0.00137 s⁻¹ | kon [13]: 694000 M⁻¹ s⁻¹ | t 1/2 [13]: 8.41 min | EC50 (read off the curve) [14]: 20 ng/mL
Substance: Cirmtuzumab (positive control anti-ROR1 antibody, clone number 99961.1)
